{"source": "patent US20070191277", "proteins": {"B1": {"name": "plasminogen (protein)", "chain": "EPLDDYVNTQGASLFSVTKKQLGAGSIEECAAKCEEDEEFTCRAFQYHSKEQQCVIMAENRKSSIIIRMRDVVLFEKKVYLSECKTGNGKNYRGTMSKTKNGITCQKWSSTSPHRPRFSPATHPSEGLEENYCRNPDNDPQGPWCYTTDPEKRYDYCDILECEEECMHCSGENYDGKISKTMSGLECQAWDSQSPHAHGYIPSKFPNKNLKKNYCRNPDRELRPWCFTTDPNKRWELCDIPRCTTPPPSSGPTYQCLKGTGENYRGNVAVTVSGHTCQHWSAQTPHTHNRTPENFPCKNLDENYCRNPDGKRAPWCHTTNSQVRWEYCKIPSCDSSPVSTEQLAPTAPPELTPVVQDCYHGDGQSYRGTSSTTTTGKKCQSWSSMTPHRHQKTPENYPNAGLTMNYCRNPDADKGPWCFTTDPSVRWEYCNLKKCSGTEASVVAPPPVVLLPDVETPSEEDCMFGNGKGYRGKRATTVTGTPCQDWAAQEPHRHSIFTPETNPRAGLEKNYCRNPDGDVGGPWCYTTNPRKLYDYCDVPQCAAPSFDCGKPQVEPKKCPGRVVGGCVAHPHSWPWQVSLRTRFGMHFCGGTLISPEWVLTAAHCLEKSPRPSSYKVILGAHQEVNLEPHVQEIEVSRLFLEPTRKDIALLKLSSPAVITDKVIPACLPSPNYVVADRTECFITGWGETQGTFGAGLLKEAQLPVIENKVCNRYEFLNGRVQSTELCAGHLAGGTDSCQGDSGGPLVCFEKDKYILQGVTSWGLGCARPNKPGVYVRVSRFVTWIEGVMRNN"}}, "key": {"[1]": {"target": "T1, rPAI-123 (recombinant truncated porcine plasminogen activator inhibitor-1 isoform; RCL deleted, partial deletion of the heparin-binding domain)", "T1 chain": "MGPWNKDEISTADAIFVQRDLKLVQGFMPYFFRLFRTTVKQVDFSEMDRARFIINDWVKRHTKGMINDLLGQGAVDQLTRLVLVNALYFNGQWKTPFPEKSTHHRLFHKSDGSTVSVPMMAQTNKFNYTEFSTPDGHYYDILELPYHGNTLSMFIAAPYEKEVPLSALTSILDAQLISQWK"}, "[2]": {"target": "T2, rPAI-1Δ23 (recombinant truncated porcine plasminogen activator inhibitor-1 isoform; RCL deleted, heparin-binding domain deleted)", "T2 chain": "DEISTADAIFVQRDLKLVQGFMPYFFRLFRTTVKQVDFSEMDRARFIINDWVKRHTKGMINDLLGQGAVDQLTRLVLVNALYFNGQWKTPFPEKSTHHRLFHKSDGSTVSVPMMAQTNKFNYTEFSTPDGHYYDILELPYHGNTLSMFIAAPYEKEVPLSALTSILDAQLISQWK"}}, "data": [{"protein": "B1", "values": [{"measurement": "plasminogen cleavage (immunoblot probed for mini-plasminogen)", "setting": "[1]", "result": "the rPAI-123 recombinant protein cleaves plasminogen"}, {"measurement": "plasminogen cleavage (immunoblot probed for mini-plasminogen)", "setting": "[2]", "result": "the rPAI-1Δ23 protein did not cleave plasminogen, even when increasing concentrations of the recombinant protein were added"}]}]}
